Results from patent publication US12624123B2, “Compositions and methods for reducing off-target toxicity of antibody drug conjugates” (The Research Foundation for The State University of New York, priority 2019, dated 2026).
Several values for one entry are separate records, joined by “and”; a condition that tells them apart may be missing. Equal values may be shown once. Entries after “also recorded” stand apart in the source; their conditions may differ.

Columns and labels:
[1] = Competitive ELISA with free DM4; type: binding
Method: To determine the binding affinity of the anti-DM4 sdAbs to DM4-conjugates and free DM4, indirect ELISA and competitive ELISA were employed. Briefly, ELISA plate were coated overnight with 100 μL of neutravidin at different concentration ranging from 1 μg/mL to 10 μg/mL. After blocking with 200 μL of 2% skimmed milk-PBST for 1 h, 100 μL of 1 μM biotin-DM4 solution was added into each well and incubated for 30 min, then 100 μL of purified anti-DM4 sdAb solution at concentration ranging from 0.1 nM to 1 μM was added and incubated for 1 h. Bound sdAbs were detected with HRP conjugated anti-His antibody and TMB substrate. After the linear range of binding was determined via the indirect ELISA, a concentration of anti-DM4 sdAb near the IC50 of binding was selected to proceed with competitive ELISA. For the competitive ELISA, anti-DM4 sdAb concentration was held constant as determined from the indirect ELISA and incubated with increasing concentration of DM4 ranging from 0.1 nM to 1 μM.

[2] = system: Kasumi-3 cells; assay: MTT assay with DMFH1 in AML cell line Kasumi-3; conditions: Kasumi-3, 48-hour exposure, 10 μM DMFH1
Method: (§1) MTT Cell based assay with DMFH1 in AML cell lines. Cell cytotoxicity of DM4 on MOLM-14, KG-1, Kasumi-3, MV-4-11 cells with and without 10 μM of DMFH1 sdAb over a 48-hour exposure periods.

[3] = system: MV-4-11 cells; assay: MTT assay with DMFH1 in AML cell line MV-4-11; conditions: MV-4-11, 48-hour exposure, 10 μM DMFH1
Method: as §1

[4] = system: MOLM-14 cells; assay: MTT assay with DMFH1 in AML cell line MOLM-14; conditions: MOLM-14, 48-hour exposure, 10 μM DMFH1
Method: as §1

[5] = system: SK-BR-3 cells; assay: MTT cytotoxicity assay in SK-BR-3 cells; type: cell-based; conditions: 10 μM DMFH1
[6] = system: KG-1 cells; assay: MTT assay with DMFH1 in AML cell line KG-1; conditions: KG-1, 48-hour exposure, 10 μM DMFH1
Method: as §1

[7] = system: SK-BR-3 cells; assay: MTT cytotoxicity assay in SK-BR-3 cells; type: cell-based; conditions: 24 h exposure, 10 μM sdAb
Method: Positive clone sdAbs' DNA in pComb3XSS plasmid was isolated and transferred into pET-22b expression vector in SHuffle cells for expression. SK-BR-3 cells were used to test the anti-DM4 sdAbs effect on DM4 cytotoxicity. Briefly, 2,500 cells/well were seeded into a 96-well plate and allowed to adhere for 24 h before cell culture media was aspirated and replaced with 100 μL of fresh media solution containing with or without 10 μM of anti-DM4 sdAb and a range of DM4 concentration for another 24 h exposure period. The cells were then washed 2 times before replacing with fresh media and allowed to grow for additional 72 h.

B1: DMFH1 (protein)
VHH: QVQLQESGGGLVQPGGSLRLSCAASGSIFGISYMGWYRQAPGKQREPVAMITSGGSTYYADSVKGRVTISRDNAKKTVYLQMNSLRPEDASTYYCAAGCYRSDSPNRYDYWGQGTQVTVSS
modifications: DMFH1
Question: With B1 as the molecule, how does the Kd ([1]; free DM4, read-out: Estimated KD) read?
Answer: 11 nM and 10.5 nM

Question: And the IC50 ([1]; read-out: Estimated binding affinity IC50 to free DM4)?
Answer: 11 nM

Question: What about the “fold shift of DM4 IC50” value [2] of the same molecule?
Answer: 38.3 fold

Question: What about the “fold shift of DM4 IC50” value [3] of the same molecule?
Answer: 50.9 fold

Question: And the “fold shift of DM4 IC50” value [4]?
Answer: 60.7 fold

Question: What about the “effect on Trastuzumab Emtansine (T-DM1) cytotoxicity” value [5] of the same molecule?
Answer: did not alter the cytotoxicity; also recorded: did not change T-DM1 cytotoxicity significantly

Question: What about the “fold shift of DM1 IC50” value ([5]; 24 h) of the same molecule?
Answer: 85.6 fold

Question: And the “fold shift of DM4 IC50” value [6]?
Answer: 57.2 fold

Question: And the “Fold shifted (DM4 IC50)” value [7]?
Answer: 254 fold and 250.5 fold
